# Square brackets hold non-standard residues; d marks the D form. Ends that are not written are not given here. pT = C[C@@H](OP(=O)(O)O)[C@H](N)C(=O)O
# T1: pT231-tau peptide locked in trans (pT231-Ala)
# T1 construct: also called trans pT231-tau peptide
# T1 peptide: KVAVVR[pT]APKSPS
# Molecular target: T1, pT231-tau peptide locked in trans …
# Test: ELISA, hybridoma culture supernatant on peptide
# Procedure: To develop cis and trans pT231-tau mouse mAbs, 74% cis pT231-Pip tau peptide as described previously in Nakamura et al., Cell 149: 232-244, 2012 was used to immunize mice. The procedure produced 480 hybridoma clones that were then characterized. […] The nucleic acid and protein sequences including the CDRs of the mAb heavy chain and light chain are shown below. […] The DNA sequences of the heavy and light chains of the mAbs were determined using 5′ RACE RT-PCR techniques, as described in Bradbury et al., Neurobiol Aging 16:465-475, 1995. […] Predicted protein sequences are highly conserved in Framework regions, with clear differences in complementary determining region (CDR) 1-3 (FIGS. 8 and 9).
row,binding result,Binder
1,no binding,"Cis mAb-#74 (antibody, V domains shown, Mouse monoclonal antibody from a hybridoma, screened as culture supernatant; also called cis hybridoma clone #74; cis pT231-tau mouse mAb) VH: DVQLQESGPGLVKPSQSLSLTCSVTGYSITSGYYWNWIRQFPGNKLEWMGYISYDGSNNYNPSLKNRISITRDTSKNQFFLKLNSVTTEDTATYYCAGLRRDAYWGQGTLVTVSA VL: DIQMTQTTSSLSASLGDRVTISCRASQDISNYLNWYQQKPDGTVKLLIYYTSRLHSGVPSRFSGSGSGTDYSLTISNLEQEDIATYFCQQGNTLPWTFGGGTKLEIKR"
2,no binding,"Cis mAb-#113 (antibody, V domains shown, Mouse monoclonal antibody from a hybridoma, screened as culture supernatant; also called cis pT231-tau mouse mAb) VH: QVQLQQPGAELVKPGASVKMSCKASGYTFTSYWIHWVKQRPGQGLEWIGVIDPSDSYTRYNQKFKGKATLTVDTSSSTAYMQLSSLTSEDSAVYYCTTWEVDYWGQGTTLTVSS VL: DVVMTQTPLSLPVSLGDQASISCRSSQSLVHSDGNTYLHWYLQKPGQSPKLLIYKVSNRFSGVPDRFSGSGSGTDFTLKISRLEAEDLGVYFCSQSTHVPWTFGGGTKLEIKR"
